From patent US20220168440A1, “ANTIBODY-PYRROLOBENZODIAZEPINE DEPRIVATIVE CONJUGATE” (DAIICHI SANKYO COMPANY, LIMITED, priority 2019, published 2022)
Changes are numbered by the printed parent chain.

Legend:
human CLDN4 = target: T1, human CLDN4 (human, UniProt O14493 1-209); test: flow cytometry on transiently transfected 293T cells
T1 construct: whole, on cells
T1 sequence (looked up): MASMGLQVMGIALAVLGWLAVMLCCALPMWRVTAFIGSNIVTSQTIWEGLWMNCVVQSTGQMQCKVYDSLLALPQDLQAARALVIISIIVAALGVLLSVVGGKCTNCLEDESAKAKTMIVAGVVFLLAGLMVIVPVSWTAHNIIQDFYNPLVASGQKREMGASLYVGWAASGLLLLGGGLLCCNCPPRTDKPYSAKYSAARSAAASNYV
Procedure: (§1) Binding activity of the mouse anti-CLDN6 antibodies produced in Example 6 to human CLDN6 and its family molecules, CLDN3, CLDN4, and CLDN9, was evaluated by using a flow cytometry method. Human CLDN3/pCMV6-Entry, human CLDN4/pCMV6-Entry, human CLDN6/pCMV-Entry, human CLDN9/pCMV6-Entry, or pCMV6-Entry purchased from OriGene Technologies, Inc. was transiently transferred into 293T cells (Thermo Fisher Scientific, HCL4517) by using Lipofectamine 2000 (Thermo Fisher Scientific), and the cells were cultured under conditions of 37° C. and 5% CO₂ overnight, and then a cell suspension was prepared. […] The cells were washed twice with Dulbecco's phosphate buffered saline (Sigma-Aldrich Co. LLC) containing 5% fetal bovine serum (Hyclone) (hereinafter, referred to as 5% FBS-containing PBS), and FLUORESCEIN-CONJUGATED GOAT IGG FRACTION TO MOUSE IGG (WHOLE MOLECULE) (MP Biomedicals, Inc.) 500-fold diluted with 5% FBS-containing PBS was then added thereto, and the cells were suspended and left to stand at 4° C. for 1 hour. After washing twice with 5% FBS-containing PBS, detection was carried out by using a flow cytometer (FC500; Beckman Coulter, Inc.). Data analysis was carried out by using FlowJo (Tree Star, Inc.). […] In each graph in FIG. 40, the ordinate represents FITC fluorescence intensity indicating the amount of the binding antibody and the abscissa represents antibody concentrations.
(§2) The binding activity of the humanized anti-CLDN6 antibody produced in Example 10 to human CLDN6 and its family molecules, CLDN3, CLDN4, and CLDN9, was evaluated by using a flow cytometry method.

human CLDN3 = target: T2, human CLDN3 (human, UniProt O15551 1-220); test: as above
T2 construct: whole, on cells
T2 sequence (looked up): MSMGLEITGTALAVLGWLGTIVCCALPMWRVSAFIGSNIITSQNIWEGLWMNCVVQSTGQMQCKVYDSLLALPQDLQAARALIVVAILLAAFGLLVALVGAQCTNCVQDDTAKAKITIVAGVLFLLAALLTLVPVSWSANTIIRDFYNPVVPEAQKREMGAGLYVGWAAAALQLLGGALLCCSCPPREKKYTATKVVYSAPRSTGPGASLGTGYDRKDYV
Procedure: as §1, §2

human CLDN6 [1] = target: T3, human CLDN6 (human, UniProt P56747 1-220); test: flow cytometry (MFI) on transiently transfected 293T cells
T3 construct: Four-transmembrane protein, NP_067018; It was also expressed on CHO-K1 cells by cDNA transfection; In the immunoprecipitation it was the endogenous protein from NTERA-2 cell lysate; also called hCLDN6; claudin-6
T3 sequence: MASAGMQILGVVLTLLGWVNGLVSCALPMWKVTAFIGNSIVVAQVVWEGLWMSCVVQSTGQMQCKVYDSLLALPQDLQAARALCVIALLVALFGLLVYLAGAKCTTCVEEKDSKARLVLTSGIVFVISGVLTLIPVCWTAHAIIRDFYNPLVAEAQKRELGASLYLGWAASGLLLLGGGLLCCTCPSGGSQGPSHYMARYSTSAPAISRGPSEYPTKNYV
Procedure: (§3) The binding activity of the humanized anti-CLDN6 antibody produced in Example 10 to human CLDN6 and its family molecules, CLDN3, CLDN4, and CLDN9, was evaluated by using a flow cytometry method. […] The cells were washed with Dulbecco's phosphate buffered saline (Sigma-Aldrich Co. LLC) containing 5% fetal bovine serum (Hyclone) (hereinafter, referred to as 5% FBS-containing PBS), and FITC AffiniPureF (ab′)2 Fragment Goat Anti-Human IgG (H+L) (Jackson ImmunoResearch Laboratories Inc.) 150-fold diluted with 5% FBS-containing PBS was then added thereto, and the cells were suspended and left to stand at 4° C. for 30 minutes. After washing with 5% FBS-containing PBS, detection was carried out by using a flow cytometer (FC500; Beckman Coulter, Inc.). Data analysis was carried out by using FlowJo (Tree Star, Inc.), and mean fluorescence intensity (MFI) of FITC, which indicates the amount of the binding antibody, was calculated. […] In each graph in FIG. 42, the abscissa represents antibody concentrations and the ordinate represents MFI.

human CLDN9 [2] = target: T4, human CLDN9 (human, UniProt O95484 1-217); test: as above
T4 construct: NP_066192; It was expressed on 293T cells transiently transfected with human CLDN9/pCMV6-Entry (OriGene); also called claudin-9
T4 sequence: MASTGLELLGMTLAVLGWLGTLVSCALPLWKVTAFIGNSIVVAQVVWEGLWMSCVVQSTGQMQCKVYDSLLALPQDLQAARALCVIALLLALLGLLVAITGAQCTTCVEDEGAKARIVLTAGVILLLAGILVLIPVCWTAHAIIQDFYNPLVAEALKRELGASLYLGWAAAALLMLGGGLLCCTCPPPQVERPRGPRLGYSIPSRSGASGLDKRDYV
Procedure: as §3

human CLDN9 [3] = target: T4, human CLDN9; test: flow cytometry on transiently transfected 293T cells
Procedure: as §1, §2

human CLDN6 [4] = target: T3, human CLDN6; test: immunoprecipitation from NTERA-2 cell lysate, SDS-PAGE, mass spectrometry of the 18 kDa band
human claudin-6 = target: T5, human claudin-6 (Homo sapiens, UniProt P56747); test: FACS analysis of 218B1/218C7 antibodies on human claudin-6-expressing CHO-K1 cells; assay type: binding; details: forced expression by cDNA transfection
T5 construct: expressed in transfected cells; host or cells: CHO-K1 cells
T5 sequence (P56747 1-220): T3 sequence
Procedure: Since the antigen for the 218B1 antibody and 218C7 antibody was estimated to be claudin-6 from the mass spectrometry, forced expression analysis by cDNA transfection was carried out.

BxPC-3 = test: Internalization activity by Mab-ZAP (saporin-conjugated anti-mouse IgG), cell survival; assay type: cell-based; details: human CLDN6-negative pancreatic cancer cell line BxPC-3; antibody 1 nM, Mab-ZAP 0.5 nM; 5 days
Procedure: (§4) Internalization activity of the mouse anti-CLDN6 antibodies B1 and C7 was evaluated by using the anti-mouse IgG reagent, to which a toxin that inhibits protein synthesis (saporin) had been conjugated, Mab-ZAP (Advanced Targeting Systems). In this evaluation, Mab-ZAP is incorporated into cells in a manner depending on the internalization activity of a mouse anti-CLDN6 antibody, and saporin, which inhibits protein synthesis, is released in the cells to suppress cell growth.
(§5) JEG-3(ATCC HTB-36), a human choriocarcinoma cell line of human CLDN6-positive cells, NIH:OVCAR-3 (ATCC HTB-161), a human ovarian cancer cell line of human CLDN6-positive cells, or BxPC-3 (ATCC CRL-1687), a human pancreatic cancer cell line of human CLDN6-negative cells, was seeded in a 96-well cell culture microplate at 2×10^3 cells/well, and cultured under conditions of 37° C. and 5% CO2 overnight. On the next day, a mixed solution obtained by mixing each mouse anti-CLDN6 antibody or mouse IgG1 antibody (R&D Systems, Inc.) to a final concentration of 1 nM, with Mab-ZAP (final concentration: 0.5 nM) or AffiniPure Goat Anti-Mouse IgG, Fcγ Fragment Specific (Jackson ImmunoResearch Laboratories Inc.) (final concentration: 0.5 nM), without conjugated toxin, was added, and the cells were cultured under conditions of 37° C. and 5% CO2 for 5 days. The number of surviving cells was determined through quantification of ATP activity by using CellTiter-Glo Luminescent Cell Viability Assay (Promega Corporation).

NIH:OVCAR-3 = test: as above; assay type: cell-based; details: human CLDN6-positive ovarian cancer cell line NIH:OVCAR-3; antibody 1 nM, Mab-ZAP 0.5 nM; 5 days
Procedure: as §4, §5

JEG-3 = test: as above; assay type: cell-based; details: human CLDN6-positive choriocarcinoma cell line JEG-3; antibody 1 nM, Mab-ZAP 0.5 nM; 5 days
Procedure: as §4, §5

B1: humanized anti-CLDN6 antibody H1L3 (antibody, human IgG1, kappa, L234A L235A, V domains shown)
VH: QVQLVQSGAEVKKPGASVKVSCKASGYTFTEYTMHWVRQAPGQGLEWMGGVNPNSGDTSYAQKFQGRVTITADTSTSTAYMELSSLRSEDTAVYYCARPGGYDVGYYAMDYWGQGTLVTVSS
VL: DIQMTQSPSSLSASVGDRVTITCRASQDINNYLNWYQQKPGGAVKLLIYFTSRLHSGVPSRFSGSGSGTDYTLTISSLQPEDFATYYCQQGYPLPWTFGGGTKVEIKR
notes: hH1 + hL3, with human IgG1 LALA constant region and human kappa chain; also called H1L3 antibody
Human CLDN4
  binding result: no binding (tested: 100 nM)
Human CLDN3
  binding result: no binding (tested: 100 nM)
Human CLDN6 [1]
  binding result: binds
Human CLDN9 [2]
  binding result: binds

B2: humanized anti-CLDN6 antibody H1L1 (antibody, human IgG1, kappa, L234A L235A, V domains shown)
VH: B1 VH
VL: B1 VL with G42K, V44P, G100Q
notes: hH1 + hL1, with human IgG1 LALA constant region and human kappa chain; also called H1L1 antibody
Human CLDN4
  binding result: no binding (tested: 100 nM)
Human CLDN3
  binding result: no binding (tested: 100 nM)
Human CLDN6 [1]
  binding result: binds
Human CLDN9 [2]
  binding result: binds

B3: humanized anti-CLDN6 antibody H2L4 (antibody, human IgG1, kappa, L234A L235A, V domains shown)
VH: B1 VH with Q1E, A24T, Q43K, G44S
VL: B1 VL with Y92N, P93T
notes: also called H2L4 antibody
Human CLDN4
  binding result: no binding (tested: 100 nM)
Human CLDN3
  binding result: no binding (tested: 100 nM)
Human CLDN6 [1]
  binding result: binds
Human CLDN9 [2]
  binding result: binds

B4: humanized anti-CLDN6 antibody H2L2 (antibody, human IgG1, kappa, L234A L235A, V domains shown)
VH: B1 VH with Q1E, A24T, Q43K, G44S
VL: B1 VL with G42K, D70H, G100Q
notes: hH2 + hL2, with human IgG1 LALA constant region and human kappa chain; also called H2L2 antibody
Human CLDN4
  binding result: no binding (tested: 100 nM)
Human CLDN3
  binding result: no binding (tested: 100 nM)
Human CLDN6 [1]
  binding result: binds
Human CLDN9 [2]
  binding result: binds

B5: humanized anti-CLDN6 antibody H3L3 (antibody, human IgG1, kappa, L234A L235A, V domains shown)
VH: B1 VH with Q1E, A24T, I70L, A72V, T74K
VL: B1 VL
notes: hH3 + hL3, with human IgG1 LALA constant region and human kappa chain; also called H3L3 antibody
Human CLDN4
  binding result: no binding (tested: 100 nM)
Human CLDN3
  binding result: no binding (tested: 100 nM)
Human CLDN6 [1]
  binding result: binds
Human CLDN9 [2]
  binding result: binds

B6: mouse anti-CLDN6 antibody B1 (antibody, V domains shown)
VH: EVQLQQSGPELVKPGASVKISCKTSGYTFTEYTMHWVQQSHGKSLEWIGGVNPNSGDTSYNQKFKGKATLTVDKSSSTAYMELRSLTSEDSAVYYCARPGGYDVGYYAMDYWGQGTSVTVSS
VL: DIQMTQTASSLSASLGDRVTISCRASQDINNYLNWYQQKPDGTVKLLIYFTSRLHSGVPSRFSGSGSGTHYSLTITNLEQEDIATYFCQQGYPLPWTFGGGTKLEIK
notes: Mouse monoclonal antibody purified from hybridoma 218B1 culture supernatant; a mouse IgG1 antibody was used as the control; also called B1 antibody; 218B1 antibody
Human CLDN9 [3]
  binding result: binds
Human CLDN4
  binding result: no binding (tested: 30 µg/mL (highest concentration tested))
Human CLDN3
  binding result: no binding (tested: 30 µg/mL (highest concentration tested))
Human CLDN6 [4]
  binding result: binds

B7: C7: mouse anti-CLDN6 antibody; heavy/light chain variable regions SEQ ID NO: 25 and 23 (antibody, listed as Mus musculus, V domains shown)
VH: B6 VH
VL: B6 VL with F50S, N77H
modifications: amino acid sequence of variable region of C7 antibody heavy chain; amino acid sequence of variable region of C7 antibody light chain
Human claudin-6
  FACS reaction for human claudin-6-expressing CHO-K1 cells: strong positive reaction
BxPC-3
  cell growth-suppressing effect (relative survival rate) with Mab-ZAP: no cell growth-suppressing effect
NIH:OVCAR-3
  cell growth-suppressing effect (relative survival rate) with Mab-ZAP: cell growth-suppressing effect
JEG-3
  cell growth-suppressing effect (relative survival rate) with Mab-ZAP: cell growth-suppressing effect

B8: B1: mouse anti-CLDN6 antibody; heavy/light chain variable regions SEQ ID NO: 21 and 19 (antibody, listed as Mus musculus, V domains shown)
VH: B6 VH
VL: B6 VL
modifications: amino acid sequence of variable region of B1 antibody heavy chain; amino acid sequence of variable region of B1 antibody light chain
Human claudin-6
  FACS reaction for human claudin-6-expressing CHO-K1 cells: strong positive reaction
BxPC-3
  cell growth-suppressing effect (relative survival rate) with Mab-ZAP: no cell growth-suppressing effect
NIH:OVCAR-3
  cell growth-suppressing effect (relative survival rate) with Mab-ZAP: cell growth-suppressing effect
JEG-3
  cell growth-suppressing effect (relative survival rate) with Mab-ZAP: cell growth-suppressing effect
